The labels stand for the following.
B1: FP136 (Fc fusion)
chain: DKTHTCPPCPAPEAAGAPSVFLFPPKPKDTLMISRTPEVTCVVVDVSHEDPEVKFNWYVDGVEVHNAKTKPREEQQNSTYRVVSVLTVLHQDWLNGKEYKCKVSNKALKAPIEKTISKAKGQPREPQVYTLPPSRDELTKNQVSLTCLVKGFYPSDIAVEWESNGQPENNYKTTPPVLDSDGSFFLYSKLTVDKSRWQQGNVFSCSVMHEALHNHYTQKSLSLSPGGSAGKGSAGKTALGRRKAEDRIKETLWADGVKIDEKDFEHIKSSHEDYFAVEYGKGSGYYDVNKKMDSEDTALCVGAVVTNMFHWWVDQNRENIEKFKKQDPENNGVMKFEGVKEATVDELNEFYRDNRDNYADQSRFFDLIKKHFGNKALNPEELFELYFNGFYYGSSHRYIEDNEPAQNNLFSKVLENNKLLNPERSYGIDGFSNNVINALKSHKVLGLVYTTPLRYRHIISMWGADIDQDGKVKAIYVTDSDDREITFNDNSKRRIGMIRYDVLVDDNGNIRFTGKGATHKEEGAIYAGLYSLSRGDEVWEDYFKKYPEVQENL
B2: FP139 (Fc fusion)
chain: DKTHTCPPCPAPEAAGAPSVFLFPPKPKDTLMISRTPEVTCVVVDVSHEDPEVKFNWYVDGVEVHNAKTKPREEQQNSTYRVVSVLTVLHQDWLNGKEYKCKVSNKALKAPIEKTISKAKGQPREPQVYTLPPSRDELTKNQVSLTCLVKGFYPSDIAVEWESNGQPENNYKTTPPVLDSDGSFFLYSKLTVDKSRWQQGNVFSCSVMHEALHNHYTQKSLSLSPGGSSAPGSSAPTALGRRKAEDRIKETLWADGVKIDEKDFEHIKSSHEDYFAVEYGKGSGYYDVNKKMDSEDTALCVGAVVTNMFHWWVDQNRENIEKFKKQDPENNGVMKFEGVKEATVDELNEFYRDNRDNYADQSRFFDLIKKHFGNKALNPEELFELYFNGFYYGSSHRYIEDNEPAQNNLFSKVLENNKLLNPERSYGIDGFSNNVINALKSHKVLGLVYTTPLRYRHIISMWGADIDQDGKVKAIYVTDSDDREITFNDNSKRRIGMIRYDVLVDDNGNIRFTGKGATHKEEGAIYAGLYSLSRGDEVWEDYFKKYPEVQENL
B3: FP141 (Fc fusion)
chain 1: DKTHTCPPCPAPEAAGAPSVFLFPPKPKDTLMISRTPEVTCVVVDVSHEDPEVKFNWYVDGVEVHNAKTKPREEQQNSTYRVVSVLTVLHQDWLNGKEYKCKVSNKALKAPIEKTISKAKGQPREPQVYTLPPSRDELTKNQVSLWCLVKGFYPSDIAVEWESNGQPENNYKTTPPVLDSDGSFFLYSKLTVDKSRWQQGNVFSCSVMHEALHNHYTQKSLSLSPGGGGSGGGGSGGGGSTALGRRKAEDRIKETLWADGVKIDEKDFEHIKSSHEDYFAVEYGKGSGYYDVNKKMDSEDTALCVGAVVTNMFHWWVDQNRENIEKFKKQDPENNGVMKFEGVKEATVDELNEFYRDNRDNYADQSRFFDLIKKHFGNKALNPEELFELYFNGFYYGSSHRYIEDNEPAQNNLFSKVLENNKLLNPERSYGIDGFSNNVINALKSHKVLGLVYTTPLRYRHIISMWGADIDQDGKVKAIYVTDSDDREITFNDNSKRRIGMIRYDVLVDDNGNIRFTGKGATHKEEGAIYAGLYSLSRGDEVWEDYFKKYPEVQENL
chain 2: DKTHTCPPCPAPEAAGAPSVFLFPPKPKDTLMISRTPEVTCVVVDVSHEDPEVKFNWYVDGVEVHNAKTKPREEQQNSTYRVVSVLTVLHQDWLNGKEYKCKVSNKALKAPIEKTISKAKGQPREPQVYTLPPSRDELTKNQVSLSCAVKGFYPSDIAVEWESNGQPENNYKTTPPVLDSDGSFFLVSKLTVDKSRWQQGNVFSCSVMHEALHNHYTQKSLSLSPG
B4: FP142 (Fc fusion)
chain 1: DKTHTCPPCPAPEAAGAPSVFLFPPKPKDTLMISRTPEVTCVVVDVSHEDPEVKFNWYVDGVEVHNAKTKPREEQQNSTYRVVSVLTVLHQDWLNGKEYKCKVSNKALKAPIEKTISKAKGQPREPQVYTLPPCRDELTKNQVSLWCLVKGFYPSDIAVEWESNGQPENNYKTTPPVLDSDGSFFLYSKLTVDKSRWQQGNVFSCSVMHEALHNHYTQKSLSLSPGGGGSGGGGSGGGGSTALGRRKAEDRIKETLWADGVKIDEKDFEHIKSSHEDYFAVEYGKGSGYYDVNKKMDSEDTALCVGAVVTNMFHWWVDQNRENIEKFKKQDPENNGVMKFEGVKEATVDELNEFYRDNRDNYADQSRFFDLIKKHFGNKALNPEELFELYFNGFYYGSSHRYIEDNEPAQNNLFSKVLENNKLLNPERSYGIDGFSNNVINALKSHKVLGLVYTTPLRYRHIISMWGADIDQDGKVKAIYVTDSDDREITFNDNSKRRIGMIRYDVLVDDNGNIRFTGKGATHKEEGAIYAGLYSLSRGDEVWEDYFKKYPEVQENL
chain 2: DKTHTCPPCPAPEAAGAPSVFLFPPKPKDTLMISRTPEVTCVVVDVSHEDPEVKFNWYVDGVEVHNAKTKPREEQQNSTYRVVSVLTVLHQDWLNGKEYKCKVSNKALKAPIEKTISKAKGQPREPQVCTLPPSRDELTKNQVSLSCAVKGFYPSDIAVEWESNGQPENNYKTTPPVLDSDGSFFLVSKLTVDKSRWQQGNVFSCSVMHEALHNHYTQKSLSLSPG
B5: FP144 (Fc fusion)
chain: DKTHTCPPCPAPEAAGAPSVFLFPPKPKDTLMISRTPEVTCVVVDVSHEDPEVKFNWYVDGVEVHNAKTKPREEQQNSTYRVVSVLTVDHHDWLNGKEYKCKVSNKALKAPIEKTISKAKGQPREPQVYTLPPSRDELTKNQVSLTCLVKGFYPSDIAVEWESNGQPENNYKTTPPVLDSDGSFFLYSKLTVDKSRWQQGNVFSCSVMHEALHSHYTQKSLSLSPGGGGSGGGGSGGGGSTALGRRKAEDRIKETLWADGVKIDEKDFEHIKSSHEDYFAVEYGKGSGYYDVNKKMDSEDTALCVGAVVTNMFHWWVDQNRENIEKFKKQDPENNGVMKFEGVKEATVDELNEFYRDNRDNYADQSRFFDLIKKHFGNKALNPEELFELYFNGFYYGSSHRYIEDNEPAQNNLFSKVLENNKLLNPERSYGIDGFSNNVINALKSHKVLGLVYTTPLRYRHIISMWGADIDQDGKVKAIYVTDSDDREITFNDNSKRRIGMIRYDVLVDDNGNIRFTGKGATHKEEGAIYAGLYSLSRGDEVWEDYFKKYPEVQENL
B6: FP143 (Fc fusion)
chain: DKTHTCPPCPAPEAAGAPSVFLFPPKPKDTLMISRTPEVTCVVVDVSHEDPEVKFNWYVDGVEVHNAKTKPREEQQNSTYRVVSVLTVLHQDWLNGKEYKCKVSNKALKAPIEKTISKAKGQPREPQVYTLPPSRDELTKNQVSLTCLVKGFYPSDIAVEWESNGQPENNYKTTPPVLDSDGSFFLYSKLTVDKSRWQQGNVFSCSVLHEALHSHYTQKSLSLSPGGGGSGGGGSGGGGSTALGRRKAEDRIKETLWADGVKIDEKDFEHIKSSHEDYFAVEYGKGSGYYDVNKKMDSEDTALCVGAVVTNMFHWWVDQNRENIEKFKKQDPENNGVMKFEGVKEATVDELNEFYRDNRDNYADQSRFFDLIKKHFGNKALNPEELFELYFNGFYYGSSHRYIEDNEPAQNNLFSKVLENNKLLNPERSYGIDGFSNNVINALKSHKVLGLVYTTPLRYRHIISMWGADIDQDGKVKAIYVTDSDDREITFNDNSKRRIGMIRYDVLVDDNGNIRFTGKGATHKEEGAIYAGLYSLSRGDEVWEDYFKKYPEVQENL
B7: FP145 (Fc fusion)
chain: DKTHTCPPCPAPEAAGAPSVFLFPPKPKDTLMISRTPEVTCVVVDVSHEDPEVKFNWYVDGVEVHNAKTKPREEQQNSTYRVVSVLTVLHQDWLNGKEYKCKVSNKALKAPIEKTISKAKGQPREPQVYTLPPSRDELTKNQVSLTCLVKGFYPSDIAVEWESNGQPENNYKTTPPVLDSDGSFFLYSKLTVDKSRWQQGNVFSCSVMHEALHNHYTQKSLSLSPGGGGSGGGGSGGGGSTALGRRKAEDRIKETLWADGVKIDEKDFEHIKSSHEDYFAVEYGKGSGYYDVNKKMDSEDSALCVGAVVTNMFHWWVDQNRENIEKFKKQDPENNGVMKFEGVKEATVDELNEFYRDNRDNYADQSRFFDLIKKHFGNKALNPEELFELYFNGFYYGSSHRYIEDNEPAQNNLFSKVLENNKLLNPERSYGIDGFSNNVINALKSHKVLGLVYTTPLRYRHIISMWGADIDQDGKVKAIYVTDSDDREITFNDNSKRRIGMIRYDVLVDDNGNIRFTGKGATHKEEGAIYAGLYSLSRGDEVWEDYFKKYPEVQENL
B8: FP137 (Fc fusion)
chain: DKTHTCPPCPAPEAAGAPSVFLFPPKPKDTLMISRTPEVTCVVVDVSHEDPEVKFNWYVDGVEVHNAKTKPREEQQNSTYRVVSVLTVLHQDWLNGKEYKCKVSNKALKAPIEKTISKAKGQPREPQVYTLPPSRDELTKNQVSLTCLVKGFYPSDIAVEWESNGQPENNYKTTPPVLDSDGSFFLYSKLTVDKSRWQQGNVFSCSVMHEALHNHYTQKSLSLSPGGSAGKGSAGKGSAGKTALGRRKAEDRIKETLWADGVKIDEKDFEHIKSSHEDYFAVEYGKGSGYYDVNKKMDSEDTALCVGAVVTNMFHWWVDQNRENIEKFKKQDPENNGVMKFEGVKEATVDELNEFYRDNRDNYADQSRFFDLIKKHFGNKALNPEELFELYFNGFYYGSSHRYIEDNEPAQNNLFSKVLENNKLLNPERSYGIDGFSNNVINALKSHKVLGLVYTTPLRYRHIISMWGADIDQDGKVKAIYVTDSDDREITFNDNSKRRIGMIRYDVLVDDNGNIRFTGKGATHKEEGAIYAGLYSLSRGDEVWEDYFKKYPEVQENL
B9: FP140 (Fc fusion)
chain: DKTHTCPPCPAPEAAGAPSVFLFPPKPKDTLMISRTPEVTCVVVDVSHEDPEVKFNWYVDGVEVHNAKTKPREEQQNSTYRVVSVLTVLHQDWLNGKEYKCKVSNKALKAPIEKTISKAKGQPREPQVYTLPPSRDELTKNQVSLTCLVKGFYPSDIAVEWESNGQPENNYKTTPPVLDSDGSFFLYSKLTVDKSRWQQGNVFSCSVMHEALHNHYTQKSLSLSPGGSSAPGSSAPGSSAPTALGRRKAEDRIKETLWADGVKIDEKDFEHIKSSHEDYFAVEYGKGSGYYDVNKKMDSEDTALCVGAVVTNMFHWWVDQNRENIEKFKKQDPENNGVMKFEGVKEATVDELNEFYRDNRDNYADQSRFFDLIKKHFGNKALNPEELFELYFNGFYYGSSHRYIEDNEPAQNNLFSKVLENNKLLNPERSYGIDGFSNNVINALKSHKVLGLVYTTPLRYRHIISMWGADIDQDGKVKAIYVTDSDDREITFNDNSKRRIGMIRYDVLVDDNGNIRFTGKGATHKEEGAIYAGLYSLSRGDEVWEDYFKKYPEVQENL

The target of the test is Human IgE antibody (human). As to the kind of experiment: cell-based or functional assay.
Consider B1, for which the “EC50 CE-SDS IgE” value came to 0.61 nM.

For the molecule B2, the “EC50 CE-SDS IgE” value is 0.11 nM.

For the molecule B3, the “EC50 CE-SDS IgE” value stood at 0.75 nM and the “EC50 MSD IgE” value came out at 0.874 nM. With B4, the “EC50 CE-SDS IgE” value is 3.8 nM. Regarding B5, the “EC50 CE-SDS IgE” value was 0.66 nM. As to B6, the “EC50 CE-SDS IgE” value amounted to 0.035 nM and the “EC50 MSD IgE” value turned out to be 1.63 nM. Taken in the same sequence, the figures for B7 were 1.45 nM and 0.654 nM. For B8, the “EC50 CE-SDS IgE” value was determined as 1.28 nM. On to B9, for which the “EC50 CE-SDS IgE” value came out at 0.43 nM and the “EC50 MSD IgE” value came to 1.35 nM.

For the origin of these results see patent US20250340857A1 (SEISMIC THERAPEUTIC, published 2025).
